One molecule from publication PMC2366074 can be followed below.

For the test, the target named is T1, inositol monophosphatase (IMPase) (UniProt P29218).
T1 sequence: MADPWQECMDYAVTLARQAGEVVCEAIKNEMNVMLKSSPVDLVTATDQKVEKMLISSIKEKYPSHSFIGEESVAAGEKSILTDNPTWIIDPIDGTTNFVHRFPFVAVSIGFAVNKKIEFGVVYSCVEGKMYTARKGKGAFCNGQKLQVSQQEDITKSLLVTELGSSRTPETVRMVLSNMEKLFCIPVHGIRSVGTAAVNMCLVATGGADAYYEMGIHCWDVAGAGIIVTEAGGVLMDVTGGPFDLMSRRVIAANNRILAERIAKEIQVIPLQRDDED

B1: recombinant calbindin (natural protein)
chain: MAESHLQSSLITASQFFEIWLHFDADGSGYLEGKELQNLIQELQQARKKAGLELSPEMKTFVDQYGQRDDGKIGIVELAHVLPTEENFLLLFRCQQLKSCEEFMKTWRKYDTDHSGFIETEELKNFLKDLLEKANKTVDDTKLAEYTDLMLKLFDSNNDGKLELTEMARLLPVQENFLLKFQGIKMCGKEFNKAFELYDQDGNGYIDENELDALLKDLCEKNKQDLDINNITTYKKNIMALSDGGKLYRTDLALILCAGDN
B1: the IMPase activity in brain homogenates (Pi release from inositol-1-phosphate) with 20 uM recombinant calbindin turned out to be 1.66 fold.
